Molecular target: CD122-Fc (UniProt P14784)
Assay: SPR, construct immobilised, CD122-Fc flowed, after protease cleavage

Chain of CD122-Fc (P14784 27-239 limits assumed): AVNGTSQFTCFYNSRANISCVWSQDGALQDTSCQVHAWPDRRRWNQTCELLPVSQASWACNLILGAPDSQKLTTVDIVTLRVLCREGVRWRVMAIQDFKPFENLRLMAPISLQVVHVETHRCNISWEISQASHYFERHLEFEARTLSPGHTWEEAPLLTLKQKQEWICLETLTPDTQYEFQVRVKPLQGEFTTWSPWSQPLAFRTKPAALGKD

- Kd: 175 nM
B1: AK168 after protease cleavage (Fc fusion, from a related filing)
chain: LYHPSGPAPTSSSTKKTQLQLEHLLLDLQMILNGINNYKNPKLTAMLTAKFAMPKKATELKHLQCLEEALKPLEEVLNLAQSKNFHLRPRDLISNINVIVLELKGSETTFMCEYADETATIVEFLNRWITFAQSIISTLT
